From the supplement of paper PMC12042874
± gives the uncertainty stated by the source.

Experiment: amyloid nucleation score (Sup35N fusion, yeast selection) (log enrichment); library NNK3; higher = more nucleation; inactive = no reads after selection
Procedure, shortened: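 On medium lacking adenine and uracil, psi-negative yeast expressing peptides of 20 random codons fused to Sup35N were grown 7 days at 30°C after a 24-hour induction with 100 μM copper sulfate. Illumina sequencing of input and output plasmid inserts gave the reads, and sequences under 100 input reads were excluded. The nucleation score is the DiMSum log enrichment of output over input reads, centred on the mode score of non-aggregating sequences.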

Substance | amyloid nucleation score
YSGIRVLFYFSISDDFSQSI | 0.756 ± 0.24
YSGTFDFLIKA | inactive
YSGWVCWSLQLTYMTFNFRL | inactive
YSHGTAKIPQAVVNDVIKSI | inactive
YSHNLWLA | inactive
YSHSGIRIKRLEASEYTWPS | inactive
YSLEGSRSTVWRGVCCKLAF | 0.092 ± 0.24
YSLFWCNNNVRGGKASMWYR | inactive
YSLNTSFIYIKIRYH | 1.28 ± 0.11
YSNGASLVWLVNVKK | 2.19 ± 0.083
YSSANNCNWC | 1.7 ± 0.077
YSSKIFHRLTK | inactive
YSSMYFL | inactive
YSTRVVRSTPWSKCSSPDME | inactive
YSVNSTLLLYVSKYEFIPCV | 0.169 ± 0.29
YSWRGIFNGWFFCFMARVLG | inactive
YSYHS | inactive
YSYNKFAVEVYLSSLHPEMM | inactive
YTIPSPVGLVLDSPVEIRDL | inactive
YTKMGTRLAFFWIRMMMRGR | inactive

Substance | amyloid nucleation score
YTLAC | inactive
YTLIIRLCFFNIGCAYRFSM | inactive
YTLVVQTSMVVFLRLYSGRY | inactive
YTSEFVIAAWSLLFDDRYMS | inactive
YTSRFSSCLWESRSDEGRNM | inactive
YTVEWWVINCFGGKADL | inactive
YTWLVTVTDDGCRFEFSCEF | inactive
YTYWG | inactive
YVAYFSGIVLMHHSRDIQFP | 0.496 ± 0.34
YVCVPCPCELSIQCCVTITF | 2.01 ± 0.061
YVEMYN | inactive
YVGFRAQHTNEDDGTTVCRP | inactive
YVGVVVYLLPMLGALYGFGD | inactive
YVILPLEAPFS | 1.49 ± 0.095
YVKPIGYTIFLWTGLGSP | inactive
YVLMGAYASVL | inactive
YVMDNNFM | inactive
YVNVSACNNGMLLGWQVG | inactive
YVRSHHNMNRTMVFKTCPWQ | inactive
YVSGKSSYIIF | 0.116 ± 0.71

Substance | amyloid nucleation score
YVSTHLSVYTKSFRDMIAPG | inactive
YVVFYHLAVALSLKMASKRI | -0.826 ± 1.9
YVVSYPVGVRSNTHLLRIWR | inactive
YVWRDLKAMGFVYAGVCGKA | inactive
YVYRSRFKQDLRGFLFNFTY | inactive
YWCLYLNSNCKMW | 0.31 ± 0.44
YWRFAMYQCIQFSRR | inactive
YWSIKELWRFRQLVWRKYIV | inactive
YWVSSYCIPMCGYQVWCVWG | inactive
YYAPVCYLSTKQGKARRPPP | inactive
YYDCIALFNSKQGSYLHYWY | inactive
YYGRNEVLYQSDNVRYSSSG | inactive
YYLDRVYIFSTQDL | 1.67 ± 0.065
YYLMLSIGQYSHTCMDGYVM | inactive
YYMNVESALECECWTIFKPC | inactive
YYSFFDIFCVITSRANFGRP | 1.28 ± 0.17
YYSFKIDRLRFVRM | inactive
YYVFVYLYSCVCFTGTGKSV | inactive
YYVSYN | inactive
YYVYSRGALLYHYILQMARL | inactive
